IntAct's records for PubMed 20126259

B1: Serine/threonine-protein kinase RAD53 (Saccharomyces cerevisiae), P22216 (parent)
chain: MENITQPTQQSTQATQRFLIEKFSQEQIGENIVCRVICTTGQIPIRDLSADISQVLKEKRSIKKVWTFGRNPACDYHLGNISRLSNKHFQILLGEDGNLLLNDISTNGTWLNGQKVEKNSNQLLSQGDEITVGVGVESDILSLVIFINDKFKQCLEQNKVDRIRSNLKNTSKIASPGLTSSTASSMVANKTGIFKDFSIIDEVVGQGAFATVKKAIERTTGKTFAVKIISKRKVIGNMDGVTRELEVLQKLNHPRIVRLKGFYEDTESYYMVMEFVSGGDLMDFVAAHGAVGEDAGREISRQILTAIKYIHSMGISHRDLKPDNILIEQDDPVLVKITDFGLAKVQGNGSFMKTFCGTLAYVAPEVIRGKDTSVSPDEYEERNEYSSLVDMWSMGCLVYVILTGHLPFSGSTQDQLYKQIGRGSYHEGPLKDFRISEEARDFIDSLLQVDPNNRSTAAKALNHPWIKMSPLGSQSYGDFSQISLSQSLSQQKLLENMDDAQYEFVKAQRKLQMEQQLQEQDQEDQDGKIQGFKIPAHAPIRYTQPKSIEAETREQKLLHSNNTENVKSSKKKGNGRFLTLKPLPDSIIQESLEIQQGVNPFFIGRSEDCNCKIEDNRLSRVHCFIFKKRHAVGKSMYESPAQGLDDIWYCHTGTNVSYLNNNRMIQGTKFLLQDGDEIKIIWDKNNKFVIGFKVEINDTTGLFNEGLGMLQEQRVVLKQTAEEKDLVKKLTQMMAAQRANQPSASSSSMSAKKPPVSDTNNNGNNSVLNDLVESPINANTGNILKRIHSVSLSQSQIDPSKKVKRAKLDQTSKGPENLQFS
partner: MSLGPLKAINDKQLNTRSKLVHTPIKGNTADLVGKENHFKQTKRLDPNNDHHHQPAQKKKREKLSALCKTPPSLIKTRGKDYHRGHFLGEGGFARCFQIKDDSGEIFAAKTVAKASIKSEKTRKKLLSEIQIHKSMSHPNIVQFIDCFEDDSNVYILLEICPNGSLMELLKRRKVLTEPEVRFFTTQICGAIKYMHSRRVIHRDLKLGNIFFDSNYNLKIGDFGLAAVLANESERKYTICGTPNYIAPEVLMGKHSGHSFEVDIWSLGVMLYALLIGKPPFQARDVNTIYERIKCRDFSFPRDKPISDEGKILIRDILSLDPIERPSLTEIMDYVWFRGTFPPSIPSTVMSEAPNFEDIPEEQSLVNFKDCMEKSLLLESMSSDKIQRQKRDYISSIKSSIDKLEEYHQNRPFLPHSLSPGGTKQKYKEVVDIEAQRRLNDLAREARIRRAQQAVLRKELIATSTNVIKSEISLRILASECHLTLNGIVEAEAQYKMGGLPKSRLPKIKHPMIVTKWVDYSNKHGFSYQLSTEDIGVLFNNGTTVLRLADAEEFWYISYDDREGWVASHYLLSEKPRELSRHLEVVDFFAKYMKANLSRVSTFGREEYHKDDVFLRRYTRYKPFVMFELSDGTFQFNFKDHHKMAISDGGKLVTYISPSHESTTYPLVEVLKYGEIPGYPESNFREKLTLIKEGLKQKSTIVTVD

Variants of: B1
Conditions: with cdc5_yeast CDC5, P32562

Row | effect of a mutation on the interaction | Variant
1 | disrupting interaction | R70A;R605A
